According to patent publication US8735553 (BEIGENE SWITZERLAND, dated 2014):
Like-named read-outs stand apart in the source and are kept apart here.

Experiments:
[1] = target: T1, human PD-1 expressed on cells (human, UniProt Q15116 25-288); assay: FACS on PD-1-expressing cells
T1 construct: whole, on cells; also called HuT78/PD-1; NK92MI/PD-1

PD-1-EC/Fc = target: T2, PD-1-EC/Fc (human, UniProt Q15116 21-168); assay: SPR (BIAcore T-200), mAb captured on anti-mouse Fc chip, PD-1/Fc injected
T2 construct: AA 1-168 includes the signal peptide; Made in 293-F cells; also called PD-1/Fc
Protocol: Anti-mouse Fc CM5 biosensor chip (GE Healthcare) was generated using a standard primary amine coupling protocol. […] Association rates (K_a or $kon$) and dissociation rates (K_d or $koff$) were calculated using the one-to-one Langmuir binding model (BIA Evaluation Software, GE Life Sciences). The equilibrium dissociation constant (K_D) was calculated as the ratio $koff/kon$.

[2] = target: P3Z chimeric PD-1 receptor (human); assay: cell-based or functional assay
[3] = target: T1, human PD-1 expressed on cells; assay: cell-based or functional assay
[4] = target: T1, human PD-1 expressed on cells; assay: cell-based or functional assay; remark: listed apart in the source
[5] = target: P3Z chimeric PD-1 receptor (human); assay: cell-based or functional assay; remark: listed apart in the source
[6] = target: T1, human PD-1 expressed on cells; assay: cell-based or functional assay; remark: listed apart in the source
[7] = target: T1, human PD-1 expressed on cells; assay: FACS on HuT78/PD-1 cells, MFI against Ab concentration (unit taken from the x axis, µg/ml)
Protocol: To block human Fc receptors, cells were pre-incubated with human IgG (20 μg/ml) (Cat. No. H11296, LifeHolder, USA and Shanghai, China).
Dose-dependent reaction curve of murine mAbs binding to human PD-1 expressed on live cells by FACS analyses. […] MFI stands for mean fluorescence intensity. HuT78/PD-1 cells were suspended in 96-well plate at 5 ×10^4 cells per well for FACS.

[8] = target: T1, human PD-1 expressed on cells; assay: cell-based or functional assay; remark: listed apart in the source
[9] = target: P3Z chimeric PD-1 receptor (human); assay: cell-based or functional assay; remark: listed apart in the source
[10] = target: T1, human PD-1 expressed on cells; assay: cell-based or functional assay; remark: listed apart in the source
human FcγRIIIA (F158) = target: T3, human FcγRIIIA (F158) (human, UniProt P08637 17-254); assay: flow cytometry, FcγR+ HEK293 cells
T3 construct: whole, on cells
Protocol: (§1) Binding of various IgG4 mutants to FcγRs was determined by flow cytometry. In brief, a series of HEK293 transfectants expressing human FcγRs were established. These transfectants expressed FcγRI, FcγRIIA, FcγRIIB or FcγRIIIA Multi-subunit FcγRs (i.e., FcγR1 and FcγRIIIA) were co-expressed with FcRγ. Polymorphic variants (i.e., FcγRIIA H131 and R131, FcγRIIIA F158 and V158) were also included.

human FcγRI = target: T4, human FcγRI (human, UniProt P12314 16-374); assay: flow cytometry, FcγR+ HEK293 cells
T4 construct: whole, on cells; also called FcγR1
Protocol: as §1

human FcγRIIIA (V158) = target: T5, human FcγRIIIA (V158) (human, UniProt P08637 17-254); assay: flow cytometry, FcγR+ HEK293 cells
T5 construct: whole, on cells; also called CD16 (V158 allele)
Protocol: as §1

[11] = target: T1, human PD-1 expressed on cells; assay: FACS on PD-1-expressing cells, goat anti-human IgG detection
[12] = target: T1, human PD-1 expressed on cells; assay: cell-based or functional assay; remark: listed apart in the source
[13] = target: P3Z chimeric PD-1 receptor (human); assay: cell-based or functional assay; remark: listed apart in the source
[14] = target: T6, wild-type human PD-1 recombinant protein (PD-1/His or PD-1/Fc, not said which) (human, UniProt Q15116 21-168); assay: ELISA on coated recombinant PD-1
T6 construct: also called WT PD-1
T6 sequence (Q15116 21-168 limits assumed): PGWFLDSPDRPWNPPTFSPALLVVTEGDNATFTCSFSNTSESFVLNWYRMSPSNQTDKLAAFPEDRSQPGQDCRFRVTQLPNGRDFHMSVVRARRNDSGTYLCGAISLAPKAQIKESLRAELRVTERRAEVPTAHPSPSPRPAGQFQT

T1 sequence (Q15116 25-288): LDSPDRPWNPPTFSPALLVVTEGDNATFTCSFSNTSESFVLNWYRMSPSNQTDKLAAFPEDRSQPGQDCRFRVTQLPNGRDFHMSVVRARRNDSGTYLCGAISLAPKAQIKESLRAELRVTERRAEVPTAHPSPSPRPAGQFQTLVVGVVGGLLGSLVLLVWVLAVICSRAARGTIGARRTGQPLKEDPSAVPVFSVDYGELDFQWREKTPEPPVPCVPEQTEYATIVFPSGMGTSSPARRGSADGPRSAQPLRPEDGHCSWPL
T2 sequence (Q15116 21-168 limits assumed): as the sequence (Q15116 21-168 limits assumed) above
Chain of P3Z chimeric PD-1 receptor (human) (chain, as listed by the source mutant limits assumed): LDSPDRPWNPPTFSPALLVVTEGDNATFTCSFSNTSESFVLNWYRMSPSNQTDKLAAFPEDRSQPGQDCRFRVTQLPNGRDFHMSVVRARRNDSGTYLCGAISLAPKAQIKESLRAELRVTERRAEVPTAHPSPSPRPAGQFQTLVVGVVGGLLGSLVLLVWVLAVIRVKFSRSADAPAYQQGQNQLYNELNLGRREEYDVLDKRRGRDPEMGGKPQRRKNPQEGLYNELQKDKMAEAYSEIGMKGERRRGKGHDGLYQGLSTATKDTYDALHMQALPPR
T5 sequence (P08637 17-254 F176V limits assumed): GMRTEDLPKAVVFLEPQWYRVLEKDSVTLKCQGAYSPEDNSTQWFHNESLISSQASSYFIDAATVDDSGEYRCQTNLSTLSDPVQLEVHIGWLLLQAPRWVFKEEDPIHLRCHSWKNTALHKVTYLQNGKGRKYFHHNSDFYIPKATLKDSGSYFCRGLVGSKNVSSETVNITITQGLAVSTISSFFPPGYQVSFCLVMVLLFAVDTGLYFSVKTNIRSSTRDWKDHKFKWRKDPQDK
T4 sequence (P12314 16-374): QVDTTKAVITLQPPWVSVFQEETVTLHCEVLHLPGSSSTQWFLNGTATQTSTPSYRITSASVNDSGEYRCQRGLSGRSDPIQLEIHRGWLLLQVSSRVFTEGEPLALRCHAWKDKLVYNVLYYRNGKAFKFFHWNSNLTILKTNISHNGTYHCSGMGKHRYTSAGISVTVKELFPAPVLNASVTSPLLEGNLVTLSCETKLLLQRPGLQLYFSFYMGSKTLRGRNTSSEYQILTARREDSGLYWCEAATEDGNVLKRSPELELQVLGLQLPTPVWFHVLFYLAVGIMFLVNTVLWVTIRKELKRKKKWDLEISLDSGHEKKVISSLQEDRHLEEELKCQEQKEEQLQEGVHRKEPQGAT
T3 sequence (P08637 17-254): as the sequence (P08637 17-254 F176V limits assumed) above, with V160F counted along it

B1: murine mAb 326 (antibody, V domains shown)
VH: QIQLVQSGPELKKPGETVKISCKASGYTFTNYGMNWVKQAPGKGLKWMGWINNNNGEPTYAEEFKGRFAFSLETSASTAYLQINNLKNEDTATYFCARDVMDYWGQGTSVTVSS
VL: DIVLTQSPASLAVSLGQRATISCRASESVDNYGYSFMHWYQQKPGQPPQLLIYRASNLESGIPARFSGSGSRTGFTLTINPVEADDVATYYCQQSKEYPTFGGGTKLEVK
notes: Murine hybridoma antibody; also called mu326
EC50 [1]: 0.126 µg/mL
Top MFI [1]: 195 MFI
Kd (PD-1-EC/Fc): 0.324 nM
koff (PD-1-EC/Fc): 7.79e-05 s⁻¹
kon (PD-1-EC/Fc): 240000 M⁻¹ s⁻¹
Inhibition of IL-2 secretion, IC50 (HuT78/P3Z + HEK293/PD-L1) [2]: 0.039 µ/ml
IL-2 release, EC50 (HuT78/PD-1 + HEK293/OS8/PD-L2) [3]: 0.038 µg/mL
IL-2 release, EC50 (HuT78/PD-1 + HEK293/OS8/PD-L1) [4]: 0.053 µg/mL
Inhibition of IL-2 secretion, IC50 (HuT78/P3Z + HEK293/PD-L2) [5]: 0.018 µg/mL
IFN-γ secreted, EC50 (NK92MI/PD-1 + SK-MES-1/PD-L1) [6]: 0.2 µg/mL
EC50 [7]: 0.126 µg/mL
Assay-1 IL-2 release, EC50 (HuT78/PD-1 + HEK293/OS8/PD-L1) [8]: 0.038 µg/mL
Assay-1 IL-2 release, Top line (HuT78/PD-1 + HEK293/OS8/PD-L1) [8]: 1150 pg/mL
Assay-2 IL-2 release, IC50 (HuT78/P3Z + HEK293/PD-L1) [9]: 0.14 µg/mL
Assay-2 IL-2 release, Max inhibition (HuT78/P3Z + HEK293/PD-L1) [9]: 96.9%
Cytotoxicity of NK92MI/PD-1 cells against SK-MES-1/PD-L1, EC50 [10]: 0.37 µg/mL

B2: hu326-4A3/IgG4mt10 (antibody)
heavy: QVQLVQSGSELKKPGASVKVSCKASGYTFTNYGMNWVRQAPGQGLKWMGWINNNNAEPTYAQDFRGRFVFSLDTSASTAYLQISSLKTEDTAVYYCARDVMDYWGQGTLVTVSSASTKGPSVFPLAPCSRSTSESTAALGCLVKDYFPEPVTVSWNSGALTSGVHTFPAVLQSSGLYSLSSVVTVPSSSLGTKTYTCNVDHKPSNTKVDKRVESKYGPPCPPCPAPPVAGGPSVFLFPPKPKDTLMISRTPEVTCVVVAVSQEDPEVQFNWYVDGVEVHNAKTKPREEQFNSTYRVVSVLTVVHQDWLNGKEYKCKVSNKGLPSSIEKTISKAKGQPREPQVYTLPPSQEEMTKNQVSLTCLVKGFYPSDIAVEWESNGQPENNYKTTPPVLDSDGSFFLYSKLTVDKSRWQEGNVFSCSVMHEALHNHYTQKSLSLSLGK
VL: DIVLTQSPASLAVSPGQRATITCRASESVDNYGYSFMHWYQQKPGQPPKLLIYRASNLESGVPARFSGSGSGTDFTLTINPVEAEDTANYYCQQSKEYPTFGGGTKVEIK
notes: Light chain constant region not restated for this format; copies: 2 + 2
binding result (human FcγRIIIA (F158)): no binding
binding result (human FcγRI): no binding
binding result (human FcγRIIIA (V158)): no binding

B3: hu317-1 (antibody, IgG2, V domains shown, not shown: a dimerising Fc or GST)
VH: QVQLQESGPGLVKPSETLSLTCTVSGFSLTSYGVHWIRQPPGKGLEWLGVIWAGGSTNYNPSLKSRLTISKDNSKSQVSLKMSSVTAADTAVYYCARAYGNYWYIDVWGQGTTVTVSS
VL: DIVMTQSPDSLAVSLGERATINCKASQSVSNDVAWYQQKPGQPPKLLINYAFHRFTGVPDRFSGSGYGTDFTLTISSLQAEDVAVYYCHQAYSSPYTFGGGTKLEIKR
notes: domain: Ig kappa C-region; Initial humanized version, IgG2 / kappa
EC50 [11]: 0.46 µg/mL
Assay-1 IL-2 release, EC50 (HuT78/PD-1 + HEK293/OS8/PD-L1) [12]: 0.09 µg/mL
Assay-1 IL-2 release, Top line (HuT78/PD-1 + HEK293/OS8/PD-L1) [12]: 386 pg/mL
Assay-2 IL-2 release, IC50 (HuT78/P3Z + HEK293/PD-L1) [13]: 0.11 µg/mL
Assay-2 IL-2 release, Max inhibition (HuT78/P3Z + HEK293/PD-L1) [13]: 99.8%

B4: hu317-4B5 (antibody, V domains shown)
VH: QVQLQESGPGLVKPSETLSLTCTVSGFSLTSYGVHWIRQPPGKGLEWIGVIYAGGSTNYNPSLKSRVTISKDTSKNQVSLKLSSVTAADTAVYYCARAYGNYWYIDVWGQGTTVTVSS
VL: DIVMTQSPDSLAVSLGERATINCKSSESVSNDVAWYQQKPGQPPKLLINYAFHRFTGVPDRFSGSGYGTDFTLTISSLQAEDVAVYYCHQAYSSPYTFGQGTKLEIK
notes: Humanized mAb
EC50 [14]: 0.057 µg/mL
